Measured values published in PMC4997359 (Scientific Reports, 2016).
One block for each molecule: values may come before it.

Legend:
[1] = target: H3C110E-H4T71C-Alexa 488 (predominantly dimeric H3-H4 variant); experiment: other fluorescence titration; labelled H3-H4 (H3C110E-H4T71C or H3C110A-H4T71C, Alexa 488; 0.1–10 nM) titrated with increasing NP (pentamer); 150 mM NaCl, 20 mM Tris-HCl, pH 7.6, 1 mM DTT, 0.1 mg/ml BSA; apparent Kd; ligand-depleted model with 2 sites per NP pentamer
[2] = target: cross-linked H3C110AK115C-H4T71C-Alexa 488 tetramer; experiment: other fluorescence titration; cross-linked H3C110AK115C-H4T71C-Alexa 488 titrated with increasing NP (pentamer); 150 mM NaCl, 20 mM Tris-HCl, pH 7.6, 1 mM DTT, 1% glycerol, 0.05% Tween 20; apparent Kd; ligand-depleted model, 1/1 NP pentamer/histone tetramer
[3] = target: H3C110E-H4T71C-Alexa 488 (predominantly dimeric H3-H4 variant); experiment: other fluorescence titration; saturation stoichiometry: labelled histone dimers at 10 times the apparent Kd titrated with NP; molar ratio at the intersection of the linear phase with the plateau; 150 mM NaCl, 20 mM Tris-HCl, pH 7.6, 1 mM DTT, 0.1 mg/ml BSA
[4] = target: H2A–H2BT112C-Alexa 488 dimer (UniProt P06897); experiment: as above
[5] = target: H2A–H2BT112C-Alexa 488 dimer (UniProt P06897); experiment: other fluorescence titration; labelled H2A–H2BT112C-Alexa 488 (0.1–10 nM) titrated with increasing NP (pentamer); 150 mM NaCl, 20 mM Tris-HCl, pH 7.6, 1 mM DTT, 0.1 mg/ml BSA; apparent Kd; ligand-depleted model with 5 sites per NP pentamer
[6] = target: cross-linked H3C110AK115C-H4T71C-Alexa 488 tetramer; experiment: other fluorescence titration; saturation stoichiometry: cross-linked H3C110AK115C-H4T71C-Alexa 488 at 10 times the apparent Kd titrated with NP; 150 mM NaCl, 20 mM Tris-HCl, pH 7.6, 1 mM DTT, 1% glycerol, 0.05% Tween 20
[7] = target: egg nucleoplasmin (eNP), native NP from Xenopus laevis eggs (X. laevis) (UniProt P05221); experiment: other fluorescence titration; competition: preformed NP/H2A–H2BT112C-Alexa 488 complexes (eNP 0.1 nM/histone 1 nM; rNP 0.5 nM/histone 5 nM) titrated with unlabelled H1 or H5; EC50 converted by the Cheng-Prusoff equation; apparent Kd
[8] = target: full-length recombinant nucleoplasmin (rNP) (X. laevis) (UniProt P05221); experiment: as above
[9] = target: T1, egg nucleoplasmin (eNP), native NP from Xenopus laevis eggs (X. laevis, UniProt P05221 1-200, natural post-translational modifications, in particular phosphorylation (hyperphosphorylated); sites not printed in the text (circles in Figure 1A)); experiment: as above; conditions: both partners purified
T1 construct: nucleoplasmin (NPM2), Xenopus laevis, 22 kDa subunit, residues 1-200 (core 1-120, tail 121-200); Homopentamer; also called NPM2; natural NP

[10] = target: T2, full-length recombinant nucleoplasmin (rNP) (X. laevis, UniProt P05221 1-200); experiment: as above; conditions: both partners purified
T2 construct: nucleoplasmin (NPM2), Xenopus laevis, full length recombinant, non-phosphorylated; also called recombinant NP

Molecule: egg nucleoplasmin (eNP), native NP from Xenopus laevis eggs (from UniProt P05221 1-200) (natural protein)
Kd [1]: 0.05 nM | Kd [2]: 1.1 nM | stoichiometry N (H3-H4 dimers per NP pentamer) [3]: 2 | stoichiometry N (H2A–H2B dimers per NP pentamer) [4]: 5 | Kd [5]: 0.06 nM | stoichiometry N (cross-linked tetramer per NP pentamer) [6]: 1

Molecule: full-length recombinant nucleoplasmin (rNP) (from UniProt P05221 1-200) (natural protein)
Kd [1]: 3 nM | Kd [2]: 2.1 nM | stoichiometry N (H2A–H2B dimers per NP pentamer) [4]: 2 | Kd [5]: 7 nM | stoichiometry N (cross-linked tetramer per NP pentamer) [6]: 1

Molecule: linker histone H1 from chicken erythrocyte chromatin (from UniProt P09987 1-218) (natural protein)
Kd [7]: 0.07 nM | Kd [8]: 1.7 nM

Molecule: rNPΔ150–200, recombinant nucleoplasmin lacking the last 50 residues (from UniProt P05221 1-149) (domain or fragment)
Kd [1]: 0.05 nM | stoichiometry N (H2A–H2B dimers per NP pentamer) [4]: 5 | Kd [5]: 0.12 nM

B1: linker histone H5 from chicken erythrocyte chromatin (natural protein, UniProt P02259 1-190, looked up)
chain: MTESLVLSPAPAKPKRVKASRRSASHPTYSEMIAAAIRAEKSRGGSSRQSIQKYIKSHYKVGHNADLQIKLSIRRLLAAGVLKQTKGVGASGSFRLAKSDKAKRSPGKKKKAVRRSTSPKKAARPRKARSPAKKPKATARKARKKSRASPKKAKKPKTVKAKSRKASKAKKVKRSKPRAKSGARKSPKKK
notes: histone H5, chicken erythrocytes; Unlabelled
Kd [9]: 0.03 ± 0.006 nM | Kd [10]: 0.7 ± 0.2 nM

More lines, in order of falling Kd [1], values ahead:

Kd [1]: 16000 nM | Kd [5]: 11 nM
Molecule: rNPΔ120–200, recombinant nucleoplasmin core lacking the whole C-terminal domain (from UniProt P05221 1-119) (domain or fragment)

Kd [1]: 0.09 nM | stoichiometry N (H2A–H2B dimers per NP pentamer) [4]: 3 | Kd [5]: 0.11 nM
Molecule: oocyte nucleoplasmin (oNP), NP isolated from X. laevis oocytes (from UniProt P05221 1-200) (natural protein)
